Test results published in the Immune Epitope Database (IEDB).

Columns and labels:
HLA-B*18:01 = assay: IEDB peptide-MHC binding, purified MHC/competitive/radioactivity; filed as Kd, often an IC50 or EC50 that approximates it; ≥ and ≤ were set here for values at or beyond the usual limits of such assays
HLA-B*40:02 = assay: as above
HLA-B*45:01 = assay: as above
HLA-B*44:02 = assay: as above
HLA-B*44:03 = assay: as above
HLA-B*40:01 [1] = assay: as above
HLA-A*02:03 = assay: as above; settings: source organism: Dengue virus 4 Philippines/H241/1956
HLA-B*08:01 [2] = assay: as above
HLA-A*31:01 = assay: IEDB peptide-MHC binding, purified MHC/direct/fluorescence; filed as Kd, often an IC50 or EC50 that approximates it; ≥ and ≤ were set here for values at or beyond the usual limits of such assays; settings: source organism: Salmonella enterica subsp. enterica serovar Typhimurium
HLA-B*15:01 [3] = assay: as above
HLA-A*69:01 = assay: as above; settings: source organism: Salmonella enterica subsp. enterica serovar Typhimurium
HLA-A*02:01 = assay: as above; settings: source organism: Salmonella enterica subsp. enterica serovar Typhimurium
HLA-B*27:05 = assay: as above; settings: source organism: Salmonella enterica subsp. enterica serovar Typhimurium
HLA-B*51:01 = assay: IEDB peptide-MHC binding, purified MHC/competitive/radioactivity; filed as Kd, often an IC50 or EC50 that approximates it; ≥ and ≤ were set here for values at or beyond the usual limits of such assays
HLA-B*53:01 = assay: as above
HLA-B*35:01 = assay: as above
HLA-A*26:01 [4] = assay: IEDB peptide-MHC binding, purified MHC/direct/fluorescence; filed as Kd, often an IC50 or EC50 that approximates it; ≥ and ≤ were set here for values at or beyond the usual limits of such assays
HLA-A*23:01 = assay: IEDB peptide-MHC binding, purified MHC/competitive/radioactivity; filed as Kd, often an IC50 or EC50 that approximates it; ≥ and ≤ were set here for values at or beyond the usual limits of such assays; settings: source organism: Dengue virus 4 Philippines/H241/1956
HLA-A*32:01 = assay: as above; settings: source organism: Dengue virus 4 Philippines/H241/1956
HLA-A*26:01 [5] = assay: as above
HLA-A*11:01 = assay: IEDB peptide-MHC binding, purified MHC/direct/fluorescence; filed as Kd, often an IC50 or EC50 that approximates it; ≥ and ≤ were set here for values at or beyond the usual limits of such assays; settings: source organism: SARS-CoV1
HLA-B*08:01 [6] = assay: as above
HLA-B*07:02 = assay: as above; settings: source organism: SARS-CoV1
HLA-B*40:01 [7] = assay: as above; settings: source organism: SARS-CoV1
HLA-B*58:01 = assay: as above; settings: source organism: SARS-CoV1
HLA-B*15:01 [8] = assay: IEDB peptide-MHC binding, purified MHC/competitive/fluorescence; filed as Kd, often an IC50 or EC50 that approximates it; ≥ and ≤ were set here for values at or beyond the usual limits of such assays; settings: source organism: Bacillus anthracis str. A0488
[9] = source organism: SARS coronavirus Tor2
[10] = source organism: Dengue virus 4 Philippines/H241/1956
[11] = source organism: Salmonella enterica subsp. enterica serovar Typhimurium
[12] = source organism: Dengue virus 3 Martinique/1243/1999
[13] = source organism: Mammarenavirus juninense
[14] = source organism: Dengue virus 2 Jamaica/1409/1983
[15] = source organism: Dengue virus 1 Brazil/97-11/1997
[16] = source organism: Mammarenavirus brazilense

GETPIAYRNV
Kd (HLA-B*18:01; [9]): ≥ 59.5 µM
Kd (HLA-B*40:02; [9]): 0.281 µM
Kd (HLA-B*45:01; [9]): 0.698 µM
Kd (HLA-B*44:02; [9]): ≥ 38.1 µM
Kd (HLA-B*44:03; [9]): ≥ 22.7 µM
Kd (HLA-B*40:01 [1]; [9]): 1.65 µM

GIMAVGLVSL
Kd (HLA-A*02:03): 0.0241 µM
Kd (HLA-B*08:01 [2]; [10]): 1.23 µM

GMFGGCFAA
Kd (HLA-A*31:01): 1.22 µM
Kd (HLA-B*15:01 [3]; [11]): 0.161 µM
Kd (HLA-A*69:01): 2.77 µM
Kd (HLA-A*02:01): 0.01 µM

GMKAFTAAV
Kd (HLA-A*31:01): 0.0748 µM
Kd (HLA-B*15:01 [3]; [11]): 0.059 µM
Kd (HLA-A*69:01): 3.56 µM
Kd (HLA-B*27:05): 7.26 µM
Kd (HLA-A*02:01): 0.281 µM

GPLVAGGLLI
Kd (HLA-B*51:01; [12]): 6.03 µM

HDLPLLCNL
Kd (HLA-B*18:01; [13]): 12.2 µM
Kd (HLA-B*40:02; [13]): 0.0152 µM
Kd (HLA-B*45:01; [13]): ≥ 77.7 µM
Kd (HLA-B*44:02; [13]): 1.49 µM
Kd (HLA-B*44:03; [13]): 4.11 µM
Kd (HLA-B*40:01 [1]; [13]): ≥ 38.1 µM

IPITAAAWYL
Kd (HLA-B*08:01 [2]; [14]): 3.76 µM
Kd (HLA-B*51:01; [14]): 6.23 µM

LPAIVREAIK
Kd (HLA-B*53:01; [14]): 4.65 µM
Kd (HLA-B*35:01; [14]): 5.5 µM
Kd (HLA-B*51:01; [14]): ≥ 69.6 µM

LPEDIEQMAN
Kd (HLA-B*53:01; [12]): 2.1 µM
Kd (HLA-B*35:01; [12]): 0.883 µM
Kd (HLA-B*51:01; [12]): ≥ 69.6 µM

LPESLETLM
Kd (HLA-B*53:01; [10]): 0.557 µM
Kd (HLA-B*35:01; [10]): 0.47 µM
Kd (HLA-B*51:01; [10]): 2.45 µM

LVIDNLYGF
Kd (HLA-A*26:01 [4]; source organism: Mycobacterium tuberculosis): 0.0122 µM

MALKDFKEF
Kd (HLA-A*23:01): 0.154 µM
Kd (HLA-B*53:01; [10]): 0.139 µM
Kd (HLA-B*35:01; [10]): 0.077 µM

MPLVMAWRTI
Kd (HLA-B*53:01; [10]): 0.0108 µM
Kd (HLA-A*32:01): 0.136 µM
Kd (HLA-B*35:01; [10]): 0.705 µM
Kd (HLA-B*51:01; [10]): 0.0619 µM

MPSMKRFRRE
Kd (HLA-B*53:01; [14]): ≥ 20.6 µM
Kd (HLA-B*35:01; [14]): ≥ 30.9 µM
Kd (HLA-B*51:01; [14]): ≥ 69.6 µM

MSIPATLFVW
Kd (HLA-B*53:01; [15]): 0.414 µM
Kd (HLA-A*26:01 [5]; [15]): 15.6 µM

MVQADSGCVV
Kd (HLA-B*51:01; [14]): ≥ 30.5 µM

MVSIQWHAM
Kd (HLA-A*26:01 [4]; source organism: Giardia lamblia ATCC 50803): 3.76 µM

NQATTKTTF
Kd (HLA-A*11:01): ≥ 79.9 µM
Kd (HLA-B*08:01 [6]; source organism: SARS-CoV1): 7.15 µM
Kd (HLA-B*15:01 [3]; source organism: SARS-CoV1): 0.203 µM
Kd (HLA-B*07:02): 19.8 µM
Kd (HLA-B*40:01 [7]): ≥ 57.3 µM
Kd (HLA-B*58:01): 9.27 µM

PELKKPITW
Kd (HLA-B*18:01; [16]): ≥ 77.5 µM
Kd (HLA-B*40:02; [16]): ≥ 37.1 µM
Kd (HLA-B*45:01; [16]): ≥ 77.7 µM
Kd (HLA-B*44:02; [16]): ≥ 42.8 µM
Kd (HLA-B*44:03; [16]): 14.1 µM
Kd (HLA-B*40:01 [1]; [16]): ≥ 76.1 µM

QSRKEFMSM
Kd (HLA-B*15:01 [8]): 0.0666 µM

RLMATKNIY
Kd (HLA-B*15:01 [8]): 0.136 µM

SPIINREGKV
Kd (HLA-B*51:01; [12]): ≥ 69.6 µM

TPQPMELKY
Kd (HLA-B*53:01; [12]): 0.0184 µM
Kd (HLA-B*35:01; [12]): 0.0106 µM

WPLNEGIMAV
Kd (HLA-B*51:01; source organism: Dengue virus 1 Singapore/S275/1990): 0.304 µM

YLKWRWLHF
Kd (HLA-B*08:01 [6]; source organism: Burkholderia mallei ATCC 23344): 0.002 µM

YTALFSGVSW
Kd (HLA-B*44:02; [12]): 2.07 µM
Kd (HLA-B*53:01; [12]): 0.0182 µM
Kd (HLA-A*26:01 [5]; [12]): 0.916 µM
